{"source": "patent US20020192216A1", "about": "“Therapeutic use” (priority 1999, published 2002)", "origin": "cited, not measured here", "system": "all three mammalian Hedgehog proteins", "conditions": "compared with Ptc", "data": [{"molecule": "HIP: membrane glycoprotein that binds Hedgehog proteins and attenuates Hedgehog signalling; GenBank AF116865 (protein, UniProt Q7TN16 18-700, looked up) Hedgehog-interacting protein: FFEGDAKFGERNEGSGARRRRCLNGNPPKRLKRRDRRVMSQLELLSGGEILCGGFYPRVSCCLQSDSPGLGRLENKIFSATNNSECSRLLEEIQCAPCSPHSQSLFYTPERDVLDGDLALPLLCKDYCKEFFYTCRGHIPGLLQTTADEFCFYYARKDAGLCFPDFPRKQVRGPASNYLGQMEDYEKVGGISRKHKHNCLCVQEVMSGLRQPVSAVHSGDGSHRLFILEKEGYVKILTPEGELFKEPYLDIHKLVQSGIKGGDERGLLSLAFHPNYKKNGKLYVSYTTNQERWAIGPHDHILRVVEYTVSRKNPHQVDVRTARVFLEVAELHRKHLGGQLLFGPDGFLYIILGDGMITLDDMEEMDGLSDFTGSVLRLDVDTDMCNVPYSIPRSNPHFNSTNQPPEVFAHGLHDPGRCAVDRHPTDININLTILCSDSNGKNRSSARILQIIKGRDYESEPSLLEFKPFSNGPLVGGFVYRGCQSERLYGSYVFGDRNGNFLTLQQSPVTKQWQEKPLCLGASSSCRGYFSGHILGFGEDELGEVYILSSSKSMTQTHNGKLYKIVDPKRPLMPEECRVTVQPAQPLTSDCSRLCRNGYYTPTGKCCCSPGWEGDFCRIAKCEPACRHGGVCVRPNKCLCKKGYLGPQCEQVDRNVRRVTRAGILDQIIDMTSYLLDLTSYIV", "values": [{"measurement": "affinity for Hedgehog proteins", "result": "comparable to that of Ptc"}]}]}
